Target: T1, a disintegrin and metalloproteinase-17 catalytic domain (6xHis-ADAM-17cd) (UniProt P78536)
T1 construct: ADAM-17 (TACE), catalytic domain; also called TACE; tumor necrosis factor-α-converting enzyme; source: bought: Enzo Life Sciences
Assay: flow cytometry on cells; scFv variants or TIMP-3 displayed on yeast; soluble 6xHis-ADAM-17cd or MMP-9cd at 100 nM (legend and results; the methods say 150 nM); PBSA pH 7.4; binding read with anti-6xHis Alexa Fluor 647, expression with anti-c-Myc and Alexa Fluor 488; median binding normalised to expression
Conditions: one partner purified

T1 sequence (P78536 215-474): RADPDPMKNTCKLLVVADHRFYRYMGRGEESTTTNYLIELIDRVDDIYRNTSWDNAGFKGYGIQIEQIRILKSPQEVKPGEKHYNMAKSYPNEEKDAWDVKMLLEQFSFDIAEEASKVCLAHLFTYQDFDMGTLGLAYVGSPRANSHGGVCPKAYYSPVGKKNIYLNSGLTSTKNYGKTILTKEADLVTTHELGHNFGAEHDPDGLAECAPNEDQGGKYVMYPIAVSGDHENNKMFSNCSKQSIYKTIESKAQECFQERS

Row | binding result | binding per expression signal, fold of TIMP-3 | Binder
1 | binds | – | SynAb-A6 scFv displayed on yeast (scFv, V domains shown, light chain variable domain as printed; glycine-rich peptide linker between VL and VH; heavy chain variable domain as printed; CDR-H3 TDLHVHVYY; VL-VH orientation; source: yeast surface display, S. cerevisiae RJY100, pCTCON2 vector; not shown: Aga2p, N-terminal, kept) VH: EVQLVQSGAEVKKPGESLKISCKGSGYSFTSYWIGWVRQMPGKGLEWMGIIYPGDSDTRYSPSFQGQVTISADKSISTAYLQWSSLKASDTAVYYCARTDLHVHVYYFDYWGQGTLVTVSS VL: not shown
2 | binds | – | SynAb-A9 scFv displayed on yeast (scFv, V domains shown, light chain variable domain as printed; glycine-rich peptide linker between VL and VH; heavy chain variable domain as printed; CDR-H3 PGGYYDMEYLY; VL-VH orientation; source: yeast surface display, S. cerevisiae RJY100, pCTCON2 vector; not shown: Aga2p, N-terminal, kept) VH: QLQLQESGPGLVKPSETLSLTCTVSGGSISSSSYYWGWIRQPPGKGLEWIGSIYYSGSTYYNPSLKSRVTISVDTSKNQFSLKLSSVTAADTAVYYCARPGGYYDMEYLYFDYWGQGTLVTVSS VL: not shown
3 | – | ≤ 3 fold | SynAb-A7 scFv displayed on yeast (scFv, V domains shown, light chain variable domain as printed; glycine-rich peptide linker between VL and VH; heavy chain variable domain as printed; CDR-H3 KKEYYSR; VL-VH orientation; source: yeast surface display, S. cerevisiae RJY100, pCTCON2 vector; not shown: Aga2p, N-terminal, kept) VH: EVQLVQSGAEVKKPGESLKISCKGSGYSFTSYWIGWVRQMPGKGLEWMGIIYPGDSDTRYSPSFQGQVTISADKSISTAYLQWSSLKASDTAVYYCARKKEYYSRFDYWGQGTLVTVSS VL: not shown

From publication PMC12838881, “Engineering Single-Chain Antibody Fragment (scFv) Variants Targeting A Disintegrin and Metalloproteinase-17 (ADAM-17)” (Biomolecules, 2025)
